{
  "source": "paper PMC3418312",
  "molecular_target": "GST fused to the OCA2 N-terminal cytoplasmic domain, AA23 variant harboring the P99S mutation (human) (UniProt Q04671)",
  "sequence (Q04671 1-173 P99S)": "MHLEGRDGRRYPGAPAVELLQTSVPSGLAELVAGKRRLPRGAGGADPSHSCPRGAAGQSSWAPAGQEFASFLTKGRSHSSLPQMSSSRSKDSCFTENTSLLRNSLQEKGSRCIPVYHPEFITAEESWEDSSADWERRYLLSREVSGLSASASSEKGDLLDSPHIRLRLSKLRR",
  "assay": "pull-down",
  "data": [
    {"substance": "AP-3 complex from MNT-1 human melanoma cell lysate (from UniProt O14617 1-1153; O00203 1-1094; Q92572 1-193)", "values": [
      {"measurement": "percent bound relative to AA23 (% relative to AA23)", "result": 30.1}
    ]}
  ]
}
